In experiment [1] the target is T1, glutathione transferase P1-1 (GSTP1-1), native (UniProt P09211 1-210). Nature of the experiment: ELISA.
The target in experiment [2] is 'Oxidized' GSTP1-1 (oxidatively inactivated) (UniProt P09211 1-210, one intra-chain disulfide bond between cysteine 47 and 101). The experiment can be described thus: ELISA.
Experiment [3] addresses T1, glutathione transferase P1-1 (GSTP1-1), …. Nature of the experiment: ELISA. This is another data set of the same source. In general terms: In an ELISA, binding on a coated surface is turned into a signal by an enzyme label.
Experiment [4] shares this target. The experiment can be described thus: ELISA. The source holds these as a separate data set.
Experiment [5] has the same target. Nature of the experiment: ELISA. The source holds these as a separate data set.
For experiment [6] the target is unchanged. The experiment can be described thus: ELISA. The source holds these as a separate data set.
The target is the same in experiment [7]. The experiment can be described thus: ELISA. This is another data set of the same source.
The target is the same in experiment [8]. The experiment can be described thus: ELISA. The source holds these as a separate data set.
Experiment [9] shares this target. The experiment can be described thus: other fluorescence titration.
Experiment [10] has the same target. The experiment can be described thus: other fluorescence titration. This is another data set of the same source.

Consider 2 molecules from article PMC4040697 (Cell Death & Disease, 2014).

T1 sequence (P09211 whole entry): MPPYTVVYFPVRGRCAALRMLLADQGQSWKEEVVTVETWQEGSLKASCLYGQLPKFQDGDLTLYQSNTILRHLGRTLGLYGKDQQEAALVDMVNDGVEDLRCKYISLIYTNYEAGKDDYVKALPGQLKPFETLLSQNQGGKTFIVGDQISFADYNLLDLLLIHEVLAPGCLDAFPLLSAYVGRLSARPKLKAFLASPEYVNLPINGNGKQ
Chain of 'Oxidized' GSTP1-1 (oxidatively inactivated) (P09211 whole entry): as above

B1: His-tagged C-terminal domain of TRAF2 (residues 310–501) (domain or fragment, human, UniProt Q12933 310-501, looked up)
chain: DQDKIEALSSKVQQLERSIGLKDLAMADLEQKVLEMEASTYDGVFIWKISDFARKRQEAVAGRIPAIFSPAFYTSRYGYKMCLRIYLNGDGTGRGTHLSLFFVVMKGPNDALLRWPFNQKVTLMLLDQNNREHVIDAFRPDVTSSSFQRPVNDMNIASGCPLFCPVSKMEAKNSYVRDDAIFIKAIVDLTGL
By Kd is commonly meant the free concentration of one partner at which half of the binding sites on the other are occupied at equilibrium, for simple one-to-one binding. The low end stands for higher affinity, the high end for lower affinity. Consider B1, for which the equilibrium dissociation constant (Kd) is 290 nM in experiment [1]; 1700 nM in experiment [2]; 1200 nM in [3]; 2600 nM in [4]; 2700 nM in experiment [5]; at least 5000 nM in experiment [6]. Moreover, the figures for the Kd in experiment [7] and in experiment [8] were 490 nM and 930 nM, respectively.

B2: Dansylated TRAF2 (C-terminal domain, residues 310–501) (domain or fragment, human, UniProt Q12933 310-501, looked up)
chain: DQDKIEALSSKVQQLERSIGLKDLAMADLEQKVLEMEASTYDGVFIWKISDFARKRQEAVAGRIPAIFSPAFYTSRYGYKMCLRIYLNGDGTGRGTHLSLFFVVMKGPNDALLRWPFNQKVTLMLLDQNNREHVIDAFRPDVTSSSFQRPVNDMNIASGCPLFCPVSKMEAKNSYVRDDAIFIKAIVDLTGL
modifications: dansyl, mole ratio of dansyl/TRAF2 2 : 1; labelled residues not stated
B2: the results for the Kd in [9] and in experiment [10] were 300 nM and 4600 nM, respectively.
